1 substance from article PMC2601033 can be followed below.

pKd: −log10 of the molar value.

Common to all, as to test: SPR
What all share (details): biotin (Biotin DecaLabel); SPR: PBS + 0.05% Tween 20, 25 C, 10 ul/min, SA chip (BIAcore 3000); ELISA: DNA coated at 10 ug/ml in Reacti-bind DNA coating solution, anti-GST detection …

Data set [1] has as its system APL_1406, GST removed (Actinobacillus pleuropneumoniae serovar 15 HS143?).
The test system of data set [2] is Ms0826, GST removed (M. succiniproducens).
Data set [3] concerns Aa1426, GST removed (Aggregatibacter (Actinobacillus) actinomycetemcomitans HK1651 (JP2 clone)?).
Data set [4] deals with ComE1 (PM1665), GST removed (Pasteurella multocida NCTC 10322/ATCC 43137?).
Data set [5] has as its system Hi1008, GST removed (Haemophilus influenzae NCTC 8470/ATCC 9332 Pittman type D?).

For pUC19 (biotinylated), the pKd in data set [1] is 5.40; in data set [2], 4.34; in data set [3], 4.80; in data set [4] it was 5.14; in data set [5] it was 5.30.
